Source: FireProtDB (doi:10.1002/pro.5560031114)
Where “and” joins values, the source holds several entries; their conditions need not be identical. Equal entries are not always repeated.

Conditions: Escherichia coli, pH 7, Thermal, DSC, Na phosphate 100 mM, NaCl 200 mM, reversible: yes, whole UniProt chain shown

B1: Regulatory protein rop wild type, P03051 (protein)
chain: MTKQEKTALNMARFIRSQTLTLLEKLNELDADEQADICESLHDHADELYRSCLARFGDDGENL
With B1 the unfolding free energy (74.6 °C) was 3.1 kcal/mol and 5.6 kcal/mol, the “unfolding enthalpy (calorimetric)” value was 114 kcal/mol and 83.1 kcal/mol and 94.3 kcal/mol and the “unfolding enthalpy (van 't Hoff)” value was 132 kcal/mol and 79.8 kcal/mol and 104 kcal/mol.
